Earlier results as cited in PMC13348789.

Molecular target: IL-2Rβ/γc intermediate-affinity receptor (Homo sapiens) (UniProt P14784)
Chain of UniProt P14784 (P14784 27-240, chain 1 of 2): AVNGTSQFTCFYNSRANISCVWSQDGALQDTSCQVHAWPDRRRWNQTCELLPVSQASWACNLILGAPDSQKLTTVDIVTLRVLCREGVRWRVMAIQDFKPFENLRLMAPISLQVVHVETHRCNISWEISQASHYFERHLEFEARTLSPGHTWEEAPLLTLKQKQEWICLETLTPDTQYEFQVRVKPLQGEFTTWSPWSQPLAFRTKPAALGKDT
Chain of UniProt P14784 (P31785 23-262, chain 2 of 2, further chain): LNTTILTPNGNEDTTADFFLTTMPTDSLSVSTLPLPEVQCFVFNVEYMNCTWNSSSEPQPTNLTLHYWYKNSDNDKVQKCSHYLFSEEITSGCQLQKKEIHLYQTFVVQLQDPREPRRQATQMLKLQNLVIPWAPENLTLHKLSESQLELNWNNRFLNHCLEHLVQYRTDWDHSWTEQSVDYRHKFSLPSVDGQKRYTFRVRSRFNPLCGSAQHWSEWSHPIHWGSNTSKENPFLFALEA

Kd: 1 nM
Substance: IL-2 (from UniProt P60568)
